{
  "source": "patent US20210196823A1",
  "about": "“Methods of Treating Metabolic Disease” (Pfizer Inc., priority 2018, published 2021)",
  "molecules": {"B1": {"name": "human ERFE: recombinant human erythroferrone, SEQ ID NO: 1 (protein, listed as Homo sapiens)", "chain": "MAPARRPAGARLLLVYAGLLAAAAAGLGSPEPGAPSRSRARREPPPGNELPRGPGESRAGPAARPPEPTAERAHSVDPRDAWMLFVRQSDKGVNGKKRSRGKAKKLKFGLPGPPGPPGPQGPPGPIIPPEALLKEFQLLLKGAVRQRERAEPEPCTCGPAGPVAASLAPVSATAGEDDDDVVGDVLALLAAPLAPGPRAPRVEAAFLCRLRRDALVERRALHELGVYYLPDAEGAFRRGPGLNLTSGQYRAPVAGFYALAATLHVALGEPPRRGPPRPRDHLRLLICIQSRCQRNASLEAIMGLESSSELFTISVNGVLYLQMGQWTSVFLDNASGCSLTVRSGSHFSAVLLGV"}, "B2": {"name": "ERFE A4-biotin (ligand)", "chain": "AAGLGSPEPGAPSRSAAAAEPPPGNELPRGPGESRAGPAARPPEPTAERAHSVDPRDAWMLFVRQSDKGVNGKKRSRGKAKKLKFGLPGPPGPPGPQGPPGPIIPPEALLKEFQLLLKGAVRQRERAEPEPCTCGPAGPVAASLAPVSATAGEDDDDVVGDVLALLAAPLAPGPRAPRVEAAFLCRLRRDALVERRALHELGVYYLPDAEGAFRRGPGLNLTSGQYRAPVAGFYALAATLHVALGEPPRRGPPRPRDHLRLLICIQSRCQRNASLEAIMGLESSSELFTISVNGVLYLQMGQWTSVFLDNASGCSLTVRSGSHFSAVLLGV", "modifications": "biotin (site not stated)"}, "B3": {"name": "monoFC-huErfe: monomeric Fc fusion of human ERFE; FIG. 3L legend names the A4 mutant (protein)", "chain": "B2 chain with A16R, A18R, A19R", "modifications": "left off: a dimerising Fc or GST"}, "B4": {"name": "BMP6: bone morphogenetic protein 6 (R&D systems) (protein)", "chain": "QQSRNRSTQSQDVARVSSASDYNSSELKTACRKHELYVSFQDLGWQDWIIAPKGYAANYCDGECSFPLNAHMNATNHAIVQTLVHLMNPEYVPKPCCAPTKLNAISVLYFDDNSNVILKKYRNMVVRACGCH"}, "B5": {"name": "BMP9: bone morphogenetic protein 9 (R&D systems) (protein)", "chain": "SAGAGSHCQKTSLRVNFEDIGWDSWIIAPKEYEAYECKGGCFFPLADDVTPTKHAIVQTLVHLKFPTKVGKACCVPTKLSPISVLYKDDMGVPTLKYHYEGMSVAECGCR"}, "B6": {"name": "BMP7: bone morphogenetic protein 7 (R&D systems) (protein)", "chain": "STGSKQRSQNRSKTPKNQEALRMANVAENSSSDQRQACKKHELYVSFRDLGWQDWIIAPEGYAAYYCEGECAFPLNSYMNATNHAIVQTLVHFINPETVPKPCCAPTQLNAISVLYFDDSSNVILKKYRNMVVRACGCH"}, "B7": {"name": "BMP5: bone morphogenetic protein 5 (R&D systems) (protein)", "chain": "AANKRKNQNRNKSSSHQDSSRMSSVGDYNTSEQKQACKKHELYVSFRDLGWQDWIIAPEGYAAFYCDGECSFPLNAHMNATNHAIVQTLVHLMFPDHVPKPCCAPTKLNAISVLYFDDSSNVILKKYRNMVVRSCGCH"}},
  "key": {"[1]": {"system": "biotinylated monoFC-muErfe", "sequence (Q6PGN1 25-340)": "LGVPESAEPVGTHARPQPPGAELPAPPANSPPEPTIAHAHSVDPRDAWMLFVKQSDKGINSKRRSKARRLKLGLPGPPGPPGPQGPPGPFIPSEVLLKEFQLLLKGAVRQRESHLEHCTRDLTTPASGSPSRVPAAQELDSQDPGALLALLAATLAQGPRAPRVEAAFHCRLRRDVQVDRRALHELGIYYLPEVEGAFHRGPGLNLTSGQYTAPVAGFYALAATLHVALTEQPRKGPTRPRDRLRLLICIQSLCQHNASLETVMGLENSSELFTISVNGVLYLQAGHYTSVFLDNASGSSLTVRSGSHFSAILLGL", "experiment": "FRET assay: BMPs disrupting binding of cryptate-labelled anti-ERFE antibody 15.1 to biotinylated monoFC-muErfe", "design": "species or system murine", "conditions": "competing antigen 250 nM to 0.39 nM, Ab 15.1 15 nM, 3 hours room temperature", "procedure": "(a) Investigation of the ability of BMPs to disrupt binding of cryptate-labelled anti-ERFE antibody to biotinylated murine ERFE: FRET assay was used to determine the ability of BMPs to disrupt binding between ERFE and a neutralising anti-ERFE antibody (Ab 15.1). The assay setup comprised streptavidin XL665 (cisbio assays) at a constant concentration of 1:1000 to be 50 ng per well, biotinylated monoFC-muErfe (9 μM) i.e. a monomeric FC murine ERFE fusion, cryptate labelled anti-ERFE antibody (Ab 15.1) at 15 nM. Each reaction well contained a total volume of 20 μl comprising: 5 μl streptavidin XL665, 5 μl Biotinylated monoFC-muErfe, 5 μl cryptate labelled anti-ERFE antibody 15.1, 5 μl competing antigen as a titration from 250 nM to 0.39 nM, all antigens at each concentration were assayed in duplicate. Reactions were left for 3 hours at room temperature and then […] at 665 nm and […] was read on the Envision. […] The assay was also conducted using a non-neutralising anti-ERFE antibody as a control."}, "[2]": {"system": "Huh7 cells", "experiment": "Gene expression microarray of Huh7 cells treated with ERFE", "type": "cell-based", "conditions": "Huh7, ERFE 10 μg/ml, 24 h", "procedure": "(b) Gene expression microarray: Microarray analysis of Huh7 cells treated with mouse or human erythroferrone was carried out to test the activity of erythroferrone on the BMP/SMAD signalling pathway. Generally cell treatments were carried out according to the following protocol: Huh7 and HepG2 were cultured in Dulbecco's Modified Eagle's Medium—High Glucose (Sigma), supplemented with 10% Fetal Bovine Serum (Sigma), 1% Penicillin-Streptomycin (Sigma) and 1% L-Glutamine (Sigma), unless otherwise indicated. Cells were plated 24 h before treatments in 24-well (gene expression analysis) or 12-well (protein analysis) cell culture plates. At the time of treatment, cells were washed with PBS and fresh media was added.\nFor the purposes of gene expression microarray analysis RNA was isolated from the Huh7 cells using RNeasy Plus kit (Qiagen), this was followed by RNA quantification and quality assessment using a 2100 Bioanalyzer (Agilent). RNA was converted into biotin labelled cRNA for hybridization and gene expression analysed using the Human HT12v4.0 Expression Beadchip (Illumina) and the Illuminas's iScan Scanner. Raw data was normalised using the lumi package (Bioconductor) and compared using LIMMA (Bioconductor). Statistical significance was set at p<0.05."}, "[3]": {"molecular_target": "T1, BMP4 (UniProt P12644 293-408)", "T1 chain": "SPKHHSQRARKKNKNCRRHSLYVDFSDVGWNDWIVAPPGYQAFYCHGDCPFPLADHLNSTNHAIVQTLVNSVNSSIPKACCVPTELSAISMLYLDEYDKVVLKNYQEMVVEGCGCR", "experiment": "SPR (Biacore)"}, "[4]": {"molecular_target": "T2, BMP6 (UniProt P22004 382-513)", "T2 chain": "B4 chain", "experiment": "SPR (Biacore)"}, "[5]": {"molecular_target": "T3, BMP2 (UniProt P12643 283-396)", "T3 chain": "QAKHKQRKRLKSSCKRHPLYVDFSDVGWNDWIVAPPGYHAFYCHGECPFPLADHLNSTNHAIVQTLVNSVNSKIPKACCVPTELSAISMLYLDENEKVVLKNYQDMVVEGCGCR", "experiment": "SPR (Biacore)"}, "[6]": {"system": "HAMP-nanoluciferase fusion in HepG2 hepatoma cells", "experiment": "hepcidin transcriptional fusion reporter assay (nano-luc / nano-luciferase assay)", "type": "cell-based", "conditions": "for hepcidin expression (hepcidin-nanoluciferase fusion expression): NanoLuc cells, serially diluted BMP, 24 h", "procedure": "The was measured in-vitro using as follows: A hepcidin transcriptional fusion reporter assay (nano-luc or nano-luciferase assay) was developed to assess the effect of BMPs on hepcidin production in-vitro. A nanoluciferase reporter was inserted at the end of the coding sequence of the endogenous HAMP gene, in HepG2 hepatoma cells, creating a HAMP-nanoluciferase fusion. CRISPR-Cas9 was used to edit the cells with this knock-in reporter construct. A bovine Growth Hormone poly A was included after the nanoLuc to ensure proper mRNA processing. A Puromycin-TK expression cassette was also included 3′ of the nanoluc reporter to enrich for properly targeted clones. […] Approximately 20,000 cells (cells split with trypsin/EDTA) were suspended in 200 uL of complete media (DMEM+10% serum+Na pyruvate) and were distributed into each well of 96-well plates and incubated for 24 hours at 37 C. Media was then aspirated and the cells treated in 100 uL complete media for 24 h at 37 C in the presence of the selected BMP which was serial diluted (in duplicates), controls of fresh media alone were used for a baseline signal (in duplicate). Following the incubation 90 uL of supernatant was transferred to a white wall 96 well plate and equilibrated at RT, 90 uL of RT NanoLuc reagent was added/well (for 1 plate, 10 mL diluting reagent+200 uL NanoLuc substrate—from Nano-Glo Luciferase Assay System, Promega, ref cat #N1150) and mixed 2-3 min at room temperature. Plates were read on Envision with Lum700 program following the manufacturer's instructions."}, "[7]": {"system": "SMAD1/5/8 phosphorylation in Huh7 cells", "experiment": "Western blot of SMAD1/5/8 phosphorylation in Huh7 cells", "type": "cell-based", "conditions": "Huh7, BMP6 stimulation, 30 min", "procedure": "(d) ERFE effects on BMP/SMAD signalling measured by SMAD 1/5/8 phosphorylation: To confirm the suppression of BMP/SMAD signalling, we analysed phosphorylation of SMAD1/5/8, required to transduce the signal leading to HAMP upregulation. Analysis was carried out by Western blot according to the following methodology: Cells were lysed at 4° C. using RIPA buffer (Thermo Scientific) containing protease/phosphatase inhibitor (Cell Signalling). Lysates were denatured at 95° C. and separated on a 10% SDS polyacrylamide gel (Bio-Rad), following the manufacturer's instruction. Protein sizes were estimated by using the Novex Sharp Pre-Stained Protein Ladder (life technologies). Protein was transferred to a nitrocellulose membrane, then blocked with milk/TBS for 1 h. Antibodies used were anti-P-SMAD 1/5 (S463s/465)/9(S465/467) (Cell signalling 13820S 1:500), anti-Smad1 (Cell Signalling 6944S 1:500), anti-β-actin-peroxidase (Sigma A3854 1:10 000), and Anti-rabbit IgG HRP conjugated (RnD systems HAP008 1:5000). […] In this case Huh7 cells were treated with mouse ERFE (10 μg/ml) or BMP6 and LDN, a small molecule inhibitor of BMPs, (100 nM), alone or in combination, for 30 min and pSMAD/SMAD ratios values were calculated by densitometry. Erythroferrone caused a decrease in SMAD phosphorylation relative to non-treated cells (FIG. 3D)."}},
  "note": "Positions count from the first letter of the chain named.",
  "data": [
    {"molecule": "BMP4: bone morphogenetic protein 4 (R&D systems)", "values": [
      {"measurement": "competition with cryptate labelled anti-ERFE antibody for binding to biotinylated monoFC-muErfe", "setting": "[1]", "result": "did not compete effectively"}
    ]},
    {"molecule": "B1", "values": [
      {"measurement": "target genes of the JAK/STAT3 pathway", "setting": "[2]", "result": "No changes"},
      {"measurement": "number of suppressed genes", "setting": "[2]; 5 are BMP/SMAD targets ID1, ID2, ID3, SMAD6, HAMP", "result": 12}
    ]},
    {"molecule": "B2", "values": [
      {"measurement": "Kd", "setting": "[3]", "result": 41.1, "unit": "nM"},
      {"measurement": "Kd", "setting": "[4]", "result": 1.17, "unit": "nM"},
      {"measurement": "Kd", "setting": "[5]", "result": 16.1, "unit": "nM"}
    ]},
    {"molecule": "B3", "values": [
      {"measurement": "suppression of hepcidin production (NanoLuc)", "setting": "[6]; two fold dilutions from 600 nM, 24 hours", "result": "dose dependent"}
    ]},
    {"molecule": "B4", "values": [
      {"measurement": "hepcidin expression (hepcidin-nanoluciferase fusion expression)", "setting": "[6]", "result": "dose-dependent increase"},
      {"measurement": "competition with cryptate labelled anti-ERFE antibody for binding to biotinylated monoFC-muErfe", "setting": "[1]", "result": "measurable competition"},
      {"measurement": "SMAD phosphorylation", "setting": "[7]", "result": "increase"}
    ]},
    {"molecule": "B5", "values": [
      {"measurement": "hepcidin expression (hepcidin-nanoluciferase fusion expression)", "setting": "[6]", "result": "dose-dependent increase"}
    ]},
    {"molecule": "B6", "values": [
      {"measurement": "competition with cryptate labelled anti-ERFE antibody for binding to biotinylated monoFC-muErfe", "setting": "[1]", "result": "measurable competition"}
    ]},
    {"molecule": "B7", "values": [
      {"measurement": "competition with cryptate labelled anti-ERFE antibody for binding to biotinylated monoFC-muErfe", "setting": "[1]", "result": "measurable competition"}
    ]}
  ]
}
